Measured values published in article PMC9831982 (Nature Communications, 2023).
Blank lines part the entries; values can stand above or below the binder they belong to.

Biological target: T1, Slh1 (from SLH1-FTP, released by TEV protease) as imaged by HS-AFM (S. cerevisiae, UniProt P53327 1-1967)
T1 construct: Slh1 (RQT2), S. cerevisiae; The methods describe this purification for the wild-type and the double-mutant trimer; not shown: protein A (behind a TEV site), C-terminal, cleaved
Test: HS-AFM; purified complex (5 nM) on mica in RQT-AFM buffer (50 mM Tris pH 7.5, 100 mM NaCl, 10 mM MgCl2, 100 mM L-arginine, 10 µM ZnCl2), room temperature
Conditions: both partners purified

T1 sequence (P53327 whole entry): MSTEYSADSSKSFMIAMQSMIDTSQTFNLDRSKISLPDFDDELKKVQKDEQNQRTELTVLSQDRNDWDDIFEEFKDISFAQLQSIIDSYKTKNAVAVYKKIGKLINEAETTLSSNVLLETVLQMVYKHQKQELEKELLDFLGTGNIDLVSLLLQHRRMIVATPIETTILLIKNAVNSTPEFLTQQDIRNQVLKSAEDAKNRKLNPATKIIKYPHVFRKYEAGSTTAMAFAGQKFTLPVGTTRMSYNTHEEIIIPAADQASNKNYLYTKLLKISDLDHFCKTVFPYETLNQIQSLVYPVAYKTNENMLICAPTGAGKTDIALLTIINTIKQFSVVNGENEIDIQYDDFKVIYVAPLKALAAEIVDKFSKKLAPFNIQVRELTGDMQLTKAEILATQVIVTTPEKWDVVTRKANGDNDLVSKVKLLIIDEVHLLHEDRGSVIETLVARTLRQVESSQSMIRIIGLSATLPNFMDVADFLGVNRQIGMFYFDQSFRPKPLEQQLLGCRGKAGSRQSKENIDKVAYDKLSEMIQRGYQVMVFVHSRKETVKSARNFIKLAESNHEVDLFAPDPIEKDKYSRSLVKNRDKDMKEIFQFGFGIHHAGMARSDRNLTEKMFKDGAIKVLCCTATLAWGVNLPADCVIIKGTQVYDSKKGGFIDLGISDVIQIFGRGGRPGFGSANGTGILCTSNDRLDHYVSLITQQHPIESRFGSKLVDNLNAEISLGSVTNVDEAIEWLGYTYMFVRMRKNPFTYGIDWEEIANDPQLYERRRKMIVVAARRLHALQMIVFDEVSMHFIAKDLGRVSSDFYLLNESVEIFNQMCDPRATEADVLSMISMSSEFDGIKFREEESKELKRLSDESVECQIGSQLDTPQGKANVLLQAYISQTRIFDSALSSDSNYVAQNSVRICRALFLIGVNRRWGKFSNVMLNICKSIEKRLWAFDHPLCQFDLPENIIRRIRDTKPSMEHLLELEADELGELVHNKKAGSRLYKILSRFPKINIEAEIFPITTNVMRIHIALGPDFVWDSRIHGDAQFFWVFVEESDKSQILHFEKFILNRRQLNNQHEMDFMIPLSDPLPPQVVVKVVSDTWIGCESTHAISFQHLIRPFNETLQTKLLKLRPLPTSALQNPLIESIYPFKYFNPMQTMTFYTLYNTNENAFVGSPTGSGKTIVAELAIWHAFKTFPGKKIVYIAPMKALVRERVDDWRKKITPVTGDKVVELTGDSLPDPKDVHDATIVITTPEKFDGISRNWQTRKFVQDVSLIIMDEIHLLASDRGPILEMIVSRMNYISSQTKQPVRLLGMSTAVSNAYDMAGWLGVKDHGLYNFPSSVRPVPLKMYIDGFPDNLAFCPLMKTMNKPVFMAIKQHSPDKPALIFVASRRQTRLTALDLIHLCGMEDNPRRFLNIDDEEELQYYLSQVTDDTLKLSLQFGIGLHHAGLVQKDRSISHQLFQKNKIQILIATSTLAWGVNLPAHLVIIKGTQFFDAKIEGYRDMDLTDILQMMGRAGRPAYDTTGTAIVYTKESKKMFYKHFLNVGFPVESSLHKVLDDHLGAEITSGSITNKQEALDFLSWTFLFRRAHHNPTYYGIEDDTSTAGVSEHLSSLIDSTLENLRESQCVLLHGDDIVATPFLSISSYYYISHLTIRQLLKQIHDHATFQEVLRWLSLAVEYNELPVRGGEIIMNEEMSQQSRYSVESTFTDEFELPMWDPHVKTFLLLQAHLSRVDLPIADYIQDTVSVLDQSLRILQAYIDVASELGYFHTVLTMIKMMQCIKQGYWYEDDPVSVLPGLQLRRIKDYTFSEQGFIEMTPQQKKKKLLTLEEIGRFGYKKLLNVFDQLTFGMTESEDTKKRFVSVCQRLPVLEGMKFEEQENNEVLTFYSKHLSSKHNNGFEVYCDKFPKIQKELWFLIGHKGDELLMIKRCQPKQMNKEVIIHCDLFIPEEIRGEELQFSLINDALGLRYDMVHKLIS

binding result: binds
B1: Cue3 as imaged by HS-AFM in the Slh1/Cue3 complex (natural protein, S. cerevisiae, UniProt P53137 1-624, looked up)
chain: MLSRYNRVIEINGGNADISLPIVKFPPFKLRAQLIEKDPVVWLHLIETYVTYFEYLMQGANVELLDESTLDHLRLFLRTYLHEIADEEGKLLSLGINHDVSEQLYLLKGWIFSLIKKCGLLHLQIFGDSLWNLIKVYVRRNPDSIRGLIDGSLKPRINTQRVQLDKSYQVQQHLKQLIESGKFKRIDLRCVEDLLSAKSMQPNKFAENFFTANWIEILEALWAKGQGRGHKEARELIIISLFSVSADRLLKITKELGISNFETLALYPLLGTMLINEGVHKRLPDLKSKLLFLNLGGLSMDEGDHMSYPTSSGTEVNEEQLSALMELFPQFSKYQLSQTLLAYDNNIELVTNKIFEDPTIIEAFSREPAEEEVEPVSDGDNASFTEELSILDRGDSSKNKELDKKIISEGVPDELRNKTLTRALKLLYEADEDERDDTYDEADVNRSDPSKRIGLQEDEESYDTKDDSNEVRQDHNYHIVEAYLWNLLKEDPKLFERSKRGTKVRKTMKEMTSWSDEKIEGWCRMLERSPTRARLLEKKFMFKGNSKTGKTSYVHNRDSQNDGNVVKEQAKQKKSENIKKHEPQSTEQKKRQHAKNEKRKGARANHNRKKGHDKKLARAGNNAI
notes: Cue3 (RQT3), S. cerevisiae

binding result: binds
B2: Rqt4 as imaged by HS-AFM in the Slh1/Rqt4 complex (natural protein, S. cerevisiae, UniProt P36119 1-530, looked up)
chain: MTRKQAIDYAIKQVPQILPLEESDVKALCEQVLSTSSDDPEQIASKFLEFLGHEDLSFEFVMKFNELLNQNDKKEEKKTKNVHLEHTAPTSWKNESKQPTNNYINKKGDEKPKKLKDEKKSSTTRPTVQPSNQSTQSNPIKEKKEHRSKGKLQSLQEIDEAIKMLELRDSGSSKNCNCQGTRHPVFDIAPNCLHCGKVVCVIEGLNKGKCGHCHEQLISDNERTQMVEILNQEKNELNGSSSSLSNASNGANVPKKKTKTYKITSGMGKNLFAEQDKLFDFIERKRERERKRNEVLKLQEEKEESEAKERQASEHDHKAEENPELLAAQERLDRLLYFQDTSAERTKIIDNASDFDMNQEVGLWGSARERALALKKQQRNLRKWEKVEKERNGRREKYVVSMNIGSNGKVTMTEVPKDTENVIAGSDDDISDISDEEDISDLKHIHALKSEINTTKSLENLHLQSKAWDYERDKKQFDRPTYVKKNSDTAQQNRKTEEKAHDMQAYDLKSRVQVDQNADASVEQNILAVL
notes: Rqt4, S. cerevisiae
